The test has as its target recombinant protein TCRVB 6-5 (human). As to the kind of experiment: SPR, compared with BJM0277.

Chain of recombinant protein TCRVB 6-5 (human) (TCR beta, as listed by the source): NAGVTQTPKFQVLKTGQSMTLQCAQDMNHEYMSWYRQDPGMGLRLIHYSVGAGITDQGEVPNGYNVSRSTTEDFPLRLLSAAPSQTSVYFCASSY

B1: A-H.45 (bispecific antibody, part only; not given: anti-CD19 arm, constant regions, linkers, not shown: another chain or arm of the molecule; a dimerising Fc or GST; small tags and cut ends)
scFv: QVQLVQSGAEVKKPGSSVKVSCKASGYSFTTYYIHWVRQAPGQGLEWMGWFSAGSGNTKYNEKFKGRVTITADTSTSTAYMELSSLRSEDTAVYYCAVSYYSYDVLDYWGQGTTVTVSSGGGGSGGGGSGGGGSGGGGSDIQMTQSPSFLSASVGDRVTITCKASQNVGINVVWHQQKPGKAPKALIYSSSHRYSGVPSRFSGSGSGTEFTLTISSLQPEDFATYFCQQFKSYPLTFGQGTKLEIK
Take B1: the fold greater affinity than BJM0277 was determined as 35 fold.

The values above are taken from patent US20250340640A1.
